Literature values in publication PMC5310643.

Molecular target: κI light chain variable domain (germline) VL (Homo sapiens) (UniProt P01594)
Experiment: NMR diffusion

For “κI light chain variable domain (germline) VL (from UniProt P01594)”, the Kd is given as 217 µM.
